Results from patent US20260049105A1 (ARIZONA BOARD OF REGENTS ON BEHALF OF THE UNIVERSITY OF …, published 2026).

Assays:
[1] = biological target: T1, human melanocortin 1 receptor (human, UniProt Q01726 1-317); experiment: cell-based or functional assay
[2] = biological target: human melanocortin 5 receptor (human, UniProt P33032 1-325); experiment: cell-based or functional assay
[3] = biological target: T2, human melanocortin 3 receptor (human, UniProt P41968 1-323); experiment: cell-based or functional assay
[4] = biological target: T1, human melanocortin 1 receptor; experiment: competition with 125I-NDP-α-MSH, cells expressing hMC1R
[5] = biological target: human melanocortin 4 receptor (human, UniProt P32245 1-332); experiment: cell-based or functional assay
[6] = biological target: T2, human melanocortin 3 receptor; experiment: competition with 125I-NDP-α-MSH, cells expressing hMC3R

T1 sequence (Q01726 whole entry): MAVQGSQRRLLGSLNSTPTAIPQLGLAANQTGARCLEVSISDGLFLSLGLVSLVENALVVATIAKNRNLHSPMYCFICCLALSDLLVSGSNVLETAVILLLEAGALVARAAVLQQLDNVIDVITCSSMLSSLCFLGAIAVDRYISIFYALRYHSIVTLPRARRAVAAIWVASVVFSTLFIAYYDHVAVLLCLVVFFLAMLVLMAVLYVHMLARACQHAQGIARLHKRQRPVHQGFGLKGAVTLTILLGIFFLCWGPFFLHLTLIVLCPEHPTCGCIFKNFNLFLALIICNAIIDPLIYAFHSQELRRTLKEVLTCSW
T2 sequence (P41968 whole entry): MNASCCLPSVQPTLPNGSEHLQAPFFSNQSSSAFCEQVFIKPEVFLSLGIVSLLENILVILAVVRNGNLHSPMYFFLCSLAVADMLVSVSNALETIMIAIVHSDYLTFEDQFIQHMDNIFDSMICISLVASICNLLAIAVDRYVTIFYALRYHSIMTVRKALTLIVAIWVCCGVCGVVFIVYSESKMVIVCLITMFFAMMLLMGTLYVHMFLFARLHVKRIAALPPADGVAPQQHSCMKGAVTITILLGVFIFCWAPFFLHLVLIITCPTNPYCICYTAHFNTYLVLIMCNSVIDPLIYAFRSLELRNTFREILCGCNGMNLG
human melanocortin 5 receptor, sequence (P33032 whole entry): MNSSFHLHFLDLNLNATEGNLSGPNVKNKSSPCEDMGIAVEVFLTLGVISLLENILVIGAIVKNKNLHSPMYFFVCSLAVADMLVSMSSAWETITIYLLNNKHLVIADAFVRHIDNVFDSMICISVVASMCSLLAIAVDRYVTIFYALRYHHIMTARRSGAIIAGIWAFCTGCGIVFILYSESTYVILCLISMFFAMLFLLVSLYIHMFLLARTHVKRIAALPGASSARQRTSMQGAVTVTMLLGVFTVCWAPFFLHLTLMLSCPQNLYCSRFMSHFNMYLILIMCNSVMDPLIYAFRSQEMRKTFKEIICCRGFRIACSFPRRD
human melanocortin 4 receptor, sequence (P32245 whole entry): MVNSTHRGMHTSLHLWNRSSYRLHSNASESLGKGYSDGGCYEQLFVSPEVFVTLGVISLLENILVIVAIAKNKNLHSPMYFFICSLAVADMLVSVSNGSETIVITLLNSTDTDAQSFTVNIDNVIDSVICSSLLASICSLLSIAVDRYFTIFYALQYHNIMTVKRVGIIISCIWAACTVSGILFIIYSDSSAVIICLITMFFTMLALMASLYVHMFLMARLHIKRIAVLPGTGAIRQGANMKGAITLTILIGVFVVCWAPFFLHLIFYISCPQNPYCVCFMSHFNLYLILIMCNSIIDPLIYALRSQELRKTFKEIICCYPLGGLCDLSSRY

Act % [1]: 100%
EC50 (nM), cAMP accumulation [1]: 340 nM
Act % [2]: 62%
EC50 (nM), cAMP accumulation [2]: > 1000 nM
Act % [3]: 59%
EC50 (nM), cAMP accumulation [3]: > 1000 nM
IC50 [4]: 14 nM
EC50 (nM), cAMP accumulation [5]: > 1000 nM
IC50 [6]: 59 nM
B1: Ac-Arg-cyclo[Asp-Pip-D-Phe(4-F)-βArg-Trp-Lys]-NH2 (peptide)
peptide: RDXFRWK
modifications: not fully specified; N-terminal acetyl (Ac); C-terminal amide (NH2); cyclized through the side chains of Asp2 and Lys7; Pip at 3; D-Phe(4-F) at 4; βArg at 5
notes: Synthetic cyclic peptide; also called compound 5; analogue 5
